According to patent publication US20160031996A1 (CSL, published 2016):
Numbering of substitutions follows the chain as printed.

Assays:
[1] = target: T1, soluble human IL-3Rα 1-306-His I50A (human, UniProt P26951 19-307); assay: Western blot, supernatants of 293FS cells
T1 construct: supernatant of 293FS cells; also called I50, soluble alanine
T1 sequence: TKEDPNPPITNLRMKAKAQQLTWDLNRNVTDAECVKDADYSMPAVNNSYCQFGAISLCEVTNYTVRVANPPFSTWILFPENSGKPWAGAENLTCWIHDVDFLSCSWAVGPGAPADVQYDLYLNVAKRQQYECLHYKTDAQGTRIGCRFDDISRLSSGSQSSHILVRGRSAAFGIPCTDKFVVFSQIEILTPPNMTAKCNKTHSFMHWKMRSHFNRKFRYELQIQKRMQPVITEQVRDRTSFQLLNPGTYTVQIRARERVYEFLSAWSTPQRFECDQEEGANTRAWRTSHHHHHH

[2] = target: T2, soluble human IL-3Rα 1-306-His E51A (human, UniProt P26951 19-307); assay: Western blot, supernatants of 293FS cells
T2 construct: supernatant of 293FS cells; also called E51, soluble alanine
T2 sequence: T1 sequence with A32I, E33A

[3] = target: T3, soluble human IL-3Rα 1-306-His F90A (human, UniProt P26951 19-307); assay: Western blot, supernatants of 293FS cells
T3 construct: supernatant of 293FS cells; also called F90, soluble alanine
T3 sequence: T1 sequence with A32I, F72A

[4] = target: T4, soluble human IL-3Rα 1-306-His S59A (human, UniProt P26951 19-307); assay: Western blot, supernatants of 293FS cells
T4 construct: supernatant of 293FS cells; also called S59, soluble alanine
T4 sequence: T1 sequence with A32I, S41A

[5] = target: T5, soluble human IL-3Rα 1-306-His P88A (human, UniProt P26951 19-307); assay: Western blot, supernatants of 293FS cells
T5 construct: supernatant of 293FS cells; also called P88, soluble alanine
T5 sequence: T1 sequence with A32I, P70A

[6] = target: T6, soluble human IL-3Rα 1-306-His F70A (human, UniProt P26951 19-307); assay: Western blot, supernatants of 293FS cells
T6 construct: supernatant of 293FS cells; also called F70, soluble alanine
T6 sequence: T1 sequence with A32I, F52A

[7] = target: T7, human IL-3Rα E51Q/S59A double mutant, full length (human, UniProt P26951 19-378); assay: Western blot after SDS-PAGE of whole cell extracts
T7 chain: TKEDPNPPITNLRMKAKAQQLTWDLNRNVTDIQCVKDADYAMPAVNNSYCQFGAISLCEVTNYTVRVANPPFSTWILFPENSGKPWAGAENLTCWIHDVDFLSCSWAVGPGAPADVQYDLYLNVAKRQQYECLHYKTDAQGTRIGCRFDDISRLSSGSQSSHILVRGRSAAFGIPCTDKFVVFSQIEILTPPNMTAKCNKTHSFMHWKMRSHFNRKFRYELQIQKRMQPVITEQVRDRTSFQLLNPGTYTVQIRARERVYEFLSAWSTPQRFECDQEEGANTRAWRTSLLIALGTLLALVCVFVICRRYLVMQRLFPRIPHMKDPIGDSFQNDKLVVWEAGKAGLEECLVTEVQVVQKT

Measured: binding result

B1: antibody CSL362 (antibody, V domains shown)
VH: EVQLVQSGAEVKKPGESLKISCKGSGYSFTDYYMKWARQMPGKGLEWMGDIIPSNGATFYNQKFKGQVTISADKSISTTYLQWSSLKASDTAMYYCARSHLLRASWFAYWGQGTMVTVSS
VL: DIVMTQSPDSLAVSLGERATINCESSQSLLNSGNQKNYLTWYQQKPGQPPKPLIYWASTRESGVPDRFSGSGSGTDFTLTISSLQAEDVAVYYCQNDYSYPYTFGQGTKLEIKR
not listed: [7]
no binding: all other assays above

B2: monoclonal antibody 7G3 (antibody, V domains shown)
VH: EVQLQQSGPELVKPGASVKMSCKASGYTFTDYYMKWVKQSHGKSLEWIGDIIPSNGATFYNQKFKGKATLTVDRSSSTAYMHLNSLTSEDSAVYYCTRSHLLRASWFAYWGQGTLVTVSA
VL: DFVMTQSPSSLTVTAGEKVTMSCKSSQSLLNSGNQKNYLTWYLQKPGQPPKLLIYWASTRESGVPDRFTGSGSGTDFTLTISSVQAEDLAVYYCQNDYSYPYTFGGGTKLEIKR
notes: mouse monoclonal antibody (hybridoma ATCC HB-12009)
no binding: [7]
